Test results published in patent US20160108381A1, “DNA POLYMERASES AND MUTANTS THEREOF” (LIFE TECHNOLOGIES CORPORATION, priority 2001, published 2016).
Marks after values point to notes of the source that are not given here.

How the values were obtained:
Experiment in all cases: Steady-state kinetics, DNA- and RNA-dependent polymerase activity
[1] = substrate: Nc1nc2c(ncn2[C@H]2C[C@H](O)[C@@H](COP(=O)(O)OP(=O)(O)OP(=O)(O)O)O2)c(=O)[nH]1; type: biochemical, Caldibacillus cellulovorans CompA.2; settings: other: Table 34, DNA template, 1.5 mM MgCl2, 55 °C per footnote *
Protocol: (§1) Purification of CA2, B.EA1, Rt41A, Dth, Tok13B, Tok7B, and Rt69B DNA polymerase. E. coli cells (BL21SI, Invitrogen Corporation, Carlsbad, Calif.) bearing the plasmid pET26B with the gene for CA2, B.EA1, Rt41A, or Dth DNA polymerase were grown in 2.8-1 Fembach flasks in LB broth containing no salt and 50 μg/ml kanamycin at 37° C. After the culture reached an A590 of 1.2, expression of DNA polymerase was induced with 0.3 M NaCl for 3 hr. Cells were harvested by centrifugation and stored at −70° C. E. coli cells (BL21AI) bearing the plasmid pET14B with the gene for Tok13B, Tok7B, or RT69B DNA polymerase were grown in 2.8-1 Fembach flasks in LB broth containing 50 μg/ml ampicillin at 37° C. After the culture reached an A590 of 1.0, expression of DNA polymerase was induced by the addition of 0.2% arabinose for 3 hr. Cells were harvested by centrifugation and stored at −70° C.
(§2) Steady-state kinetic measurements.
(§3) The catalytic rate constant kcat and the Michaelis constant KM were determined for both the DNA-dependent and RNA-dependent polymerase activities for the polypeptides of the invention and these parameters were compared to those of Tne DNA polymerase enzyme and […]™ II reverse transcriptase. […]

[2] = substrate: Cc1cn([C@H]2C[C@H](O)[C@@H](COP(=O)(O)OP(=O)(O)OP(=O)(O)O)O2)c(=O)[nH]c1=O; type: biochemical, Caldibacillus cellulovorans CompA.2; settings: 55 °C, mean ± SD
Protocol: as §1, §2, §3

[3] = substrate: Cc1cn([C@H]2C[C@H](O)[C@@H](COP(=O)(O)OP(=O)(O)OP(=O)(O)O)O2)c(=O)[nH]c1=O; type: biochemical, Bacillus caldolyticus EA1.3; settings: 55 °C, mean ± SD
Protocol: as §1, §2

[4] = substrate: Cc1cn([C@H]2C[C@H](O)[C@@H](COP(=O)(O)OP(=O)(O)OP(=O)(O)O)O2)c(=O)[nH]c1=O; type: biochemical, Dictyoglomus thermophilum strain Rt46B.1; settings: 72 °C
Protocol: as §1, §2

[5] = other: Table 40, (dA)270•(dT)40, dTTP
[6] = other: Table 40, (rA)250•(dT)30, dTTP

B1: Caldibacillus cellulovorans CompA.2 (CA2) DNA polymerase, SEQ ID NO:16 ([Caldibacillus] cellulovorans) (protein)
chain: MKYLLPTAAAGLLLLAAQPAMAMGKLILVDGNSVANRAFYAVRLLSTRGGLHTNAVYGFANMLLKLIEEERPTHFLVAFDAGKATFRHREYEAYKAGRLQTPPELSEQFPYIRELVRAFGVASGELEEYEADDMIGTLAKRAEAEGVDTLVVTGDRDLLQLVSDRVTVALTRKGITETERYDPARIREEYGFDPDRIRDLKGLMGDASDNLPGVPGVGEKTALKLLRQYGSLESVLEHASEIAGKLGENLRAHADAARLSKRLATIDCAVPLQSGWDWLRLGEPDRAALASLLRQLEFKSLLKRLGLDGTSADADVDGVRSSARPADEKRPRAVAVAEEGVDVRCPDRPEEVEEALSRLEAAQSVVVEVTGDNPHDGEVRGVAWWDGHTAYFIPFERLVQSDMRPLADWLADARRPKRTHDSHRAEVALFWHGLAFRGTSFCTHIAAYLLDPTESRHTLADLSRRYGLPPVPEAEDVYGKGAKFKVPDRDTLARYVGRKAALVARLVPLLEADLAACGMRSLFYDLELPLSSELAVMETVGVRVDAAALAAYGEELREAAAKVEREIYELAGTTFNIGSTKQLGEILFDKLGLPVVKKTKTGYSTDADVLEELAPYHPIVEKILHYRQLTKLQSTYIEGLLKEIRPQTGKIHTYYQQTIAATGRLSSQFPNLQNIPIRLEEGRKIRKAFVPSEPGWLMLAADYSQIELRVLAHVSGDERLKEAFRTGMDIHTKTAMDVFGVSEDRVDARMRRQAKAVNFGIIYGISDFGLAQNLNISRKEAAEFIRQYFAVFSGVKAYRERIVEQARRDGYVTTLLGRRRYLPDINASNYNLRSFAERTAMNTPIQGTAADIIKTAMVRLTRRMRDVGLKSRMLLQVHDELVFEVPPDELDAMRELVTDVMESAVPLDVPLKVDVSWGADWYAAK
[1]
  kcat: 200* s−1
[2]; [5]
  kcat: 82 ± 9 s⁻¹
[2]; [6]
  kcat: 48 ± 9 s⁻¹

B2: Bacillus caldolyticus EA1.3 (B.EA1) DNA polymerase, SEQ ID NO:20 ([Bacillus] caldolyticus) (protein)
chain: MKYLLPTAAAGLLLLAAQPAMAMGLKKKLVLIDGSSVAYRAFFALPLLHNDKGIHTNAVYGFTMMLNKILAEEEPTHMLVAFDAGKTTFRHEAFQEYKGGRQQTPPELSEQFPLLRELLRAYRIPAYELENYEADDIIGTLAARAEQEGFEVKVISGDRDLTQLASPHVTVDITKKGITDIEPYTPEAVREKYGLTPEQIVDLKGLMGDKSDNIPGVPGIGEKTAVKLLKQFGTVENVLASIDEIKGEKLKETLRQHREMALLSKKLAAIRRDAPVELSLDDIVYQGEDREKVVALFKELGFQSFLEKMESPSSEEEKPLAKMAFTLADRVTEEMLADKAALVVEVVEENYHDAPIVGIAVVNEHGRFFLRPETALADPQFVAWLGDETKKKSMFDSKRAAVALKWKGIELCGVSFDLLLAAYLLDPAQGVDDVAAAAKMKQYEAVRSDEAVYGKGAKRAVPDEPVLAEHLVRKAAAIWALERPFLDELRRNEQDRLLVELEQPLSSILAEMEFAGVKVDTKRLEQMGEELAEQLRTVEQRIYELAGQEFNINSPKQLGVILFEKLQLPVLKKTKTGYSTSADVLEKLAPYHEIVENILHYRQLGKLQSTYIEGLLKVVRPDTKKVHTIFNQALTQTGRLSSTEPNLQNIPIRLEEGRKIRQAFVPSESDWLIFAADYSQIELRVLAHIAEDDNLMEAFRRDLDIHTKTAMDIFQVSEDEVTPNMRRQAKAVNFGIVYGISDYGLAQNLNISRKEAAEFIERYFESFPGVKRYMENIVQEAKQKGYVTTLLHRRRYLPDITSRNFNVRSFAERMAMNTPIQGSAADIIKKAMIDLNARLKEERLQARLLLQVHDELILEAPKEEMERLCRLVPEVMEQAVTLRVPLKVDYHYGSTWYDAK
[3]; [5]
  kcat: 73 ± 16 s⁻¹
[3]; [6]
  kcat: 43 ± 7 s⁻¹

B3: Dictyoglomus thermophilum strain Rt46B.1 (Dth) DNA polymerase, SEQ ID NO:22 (Dictyoglomus thermophilum) (protein)
chain: MKYLLPTAAAGLLLLAAQPAMAMDIGINSDPKSLWDLFQENTEKESKRKILIIDGSSLIYRVYYALPPLKTKNGELTNALYGFIRILLKAVEDFNPDLVGVAFDRPEPTFRHVIYKEYKAKRPPMKDDLKAQIPWIREFLRLNDIPLLEEPGYEADDIIATIVNKYKDDLKYILSGDLDLLQLVSDKTFLIHPQKGITEFTIYDPKAVKDRFGVEPYKIPLYKVLVGDESDNIPGVNGIGPKKASKILEKISSVDEFKSKIKVLDSDLRELIEKNWNIIERNLELVTLKNIDKDLILKPFEIKRDEKVIDFLKRYELKSILQKLFPDLQEEENIEIKDVEEINFNEVEKEGYFAFKCLGDRAFEGISLSFKEGEGYFISPFDFNNEIRKKIENIISSENVKKIGSYIQRDLHFLNCKIKGDVFDVSLASYLLNPERQNHSLDILIGEYLNKTSFIPQKYAGYLFPLKSILEERIKNEGLEFVLYNIEIPLIPVLYSMEKWGIKVDKEYLKQLSDEFCERIKKLEEEIYELAGTRFNLNSPKQLSEVLFERLKLPSGKKGKTGYSTSSSVLQNLINAHPIVRKILQYRELYKLKSTYVDAIPNLVNPQTGRVHTKFNPTGTATGRISSSEPNLQNIPIKSEEGRKIRRAFVSEDGYFLVSLDYSQIELRIMAHLSQEPKLISAFQKGEDIHRRTASEIFGVPEEEVDDLLRSRAKAVNFGIIYGISSFGLSETVSITPEEAEKFIDSYFKHYPRVKLFIDKTIHEAREKLYVKTLFGRKRYIPEIKSINKQVRNAYERIAINAPIQGTAADIIKLAMIEIYKEIENKNLKSRILLQIHDELILEVPEEEMEFTPLMAKEKMEKVVELSVPLVVEISVGKNLAELK
[4]; other: Table 40, (dA)270•(dT)40, dTTP, mean ± SD
  kcat: 39 ± 15 s⁻¹
[4]; other: Table 40, (rA)250•(dT)40, dTTP
  kcat: < 1 s⁻¹
